In paper PMC8225859:

Molecular target: Low-density lipoprotein receptor-related protein 1 (LRP1) (mouse (endogenous in gonadal fat tissue))

- glucose uptake in 3T3-L1 mature adipocytes treated with 0, 0.5, 1, 2 uM r-m-APOA4 for 1 h; percent increase against buffer (~22% at 0.5 uM, ~34% at 1 uM, ~44% at 2 uM): 44%
B1: Apolipoprotein A4 (APOA4) in gonadal fat tissue of WT mice injected with recombinant mouse APOA4 (natural protein)
chain: EVTSDQVANVVWDYFTQLSNNAKEAVEQFQKTDVTQQLSTLFQDKLGDASTYADGVHNKLVPFVVQLSGHLAQETERVKEEIKKELEDLRDRMMPHANKVTQTFGENMQKLQEHLKPYAVDLQDQINTQTQEMKLQLTPYIQRMQTTIKENVDNLHTSMMPLATNLKDKFNRNMEELKGHLTPRANELKATIDQNLEDLRRSLAPLTVGVQEKLNHQMEGLAFQMKKNAEELQTKVSAKIDQLQKNLAPLVEDVQSKVKGNTEGLQKSLEDLNRQLEQQVEEFRRTVEPMGEMFNKALVQQLEQFRQQLGPNSGEVESHLSFLEKSLREKVNSFMSTLEKKGSPDQPQALPLPEQAQEQAQEQAQEQVQPKPLES
